US20180051085A1 (published 2018)
Values belong to the binder of their own block, whether it stands above or below them.

What was measured:
[1] = target: T1, human PD-1 expressed on cells (human, UniProt Q15116 25-288); experiment: binding to 2D1 cells transfected with human PD-1 (FIG. 9)
T1 construct: whole, on cells; also called SpESFX-2D1

[2] = target: T2, recombinant human PD-1-His (human, UniProt Q15116 25-167, limits assumed); experiment: binding to recombinant human PD-1-His (FIG. 8)
T2 construct: also called recombinant PD-1-His; not shown: His tag
T2 sequence (Q15116 25-167 limits assumed): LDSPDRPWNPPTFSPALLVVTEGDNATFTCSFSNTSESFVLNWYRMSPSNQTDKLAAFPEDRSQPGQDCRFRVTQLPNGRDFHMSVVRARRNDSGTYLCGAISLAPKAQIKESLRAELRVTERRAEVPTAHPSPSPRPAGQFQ

T1 sequence (Q15116 25-288): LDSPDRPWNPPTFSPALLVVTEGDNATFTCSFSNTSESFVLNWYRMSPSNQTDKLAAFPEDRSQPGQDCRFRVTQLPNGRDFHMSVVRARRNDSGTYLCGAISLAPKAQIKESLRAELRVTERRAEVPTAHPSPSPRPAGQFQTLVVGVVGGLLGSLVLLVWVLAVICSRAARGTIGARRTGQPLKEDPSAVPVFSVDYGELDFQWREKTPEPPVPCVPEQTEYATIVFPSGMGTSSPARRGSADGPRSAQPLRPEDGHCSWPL

EC50 [1]: 1.1 nM
EC50 [2]: 0.043 nM
B1: chimeric anti-PD-1 antibody 2G9 (IMMU-cPD-1) (antibody, V domains shown)
VH: VKLQESGGGLVKPGGSLKLSCAASGFAFSSNDMSWVRQTPEKRLEWVATISGGGINTYYPDSVKGRFTISRDNARNTLDLQMSSLRSEDTALYYCARRSNYAWFAYWGQGTPVTVSA
VL: not shown

EC50 [1]: 3.8 nM
EC50 [2]: 0.148 nM
B2: humanized anti-PD-1 antibody hPD-1-v5 (antibody, V domains shown)
VH: QVQLVESGGGLVKPGGSLRLSCAASGFAFSSNDMSWVRQAPGKGLEWVATISGGGINTYYPDSVKGRFTISRDNAKNTLYLQMNSLRAEDTAVYYCARRSNYAWFAYWGQGTPVTVSA
VL: DIQLTQSPASLAVSLGQRATISCRASESVDTYGISFMNWFQQKPGQPPKLLISPNQGSGVPARFSGSGSGTDFTLTINSLEAEDTAVYFCQQSKEVPWTFGGGTKLEIK
notes: also called version 5 (V5) antibody
